Reference: paper PMC9214244, “Multivalent Interaction of Beta-Catenin With its Intrinsically Disordered Binding Partner Adenomatous Polyposis Coli” (Frontiers in Molecular Biosciences, 2022)

Key:
Assay in all cases: fluorescence polarisation; fluorescence anisotropy; β-catenin titrated into 10 nM fluorescein-labelled APC construct; PBS, 1 mM DTT; 15°C; adjusted anisotropy fitted to a Hill equation
[1] = target: APCabc with the flexible linker (FL) inserted between residues 1,478 and 1,479, fluorescein-labelled at Cys 1501 (UniProt P25054)
[2] = target: APCabc with the flexible linker (FL) inserted between residues 1,500 and 1,501, fluorescein-labelled at Cys 1501 (UniProt P25054)
[3] = target: APCabc with the rigid linker (RL) inserted between residues 1,500 and 1,501, fluorescein-labelled at Cys 1501 (UniProt P25054)
[4] = target: APCbc, APC R3 subdomains b and c (residues 1,483–1,533), fluorescein-labelled at Cys 1501 (UniProt P25054)
[5] = target: pAPCabc with the flexible linker (FL) inserted between residues 1,478 and 1,479, fluorescein-labelled at Cys 1501 (UniProt P25054)
[6] = target: pAPCabc with the flexible linker (FL) inserted between residues 1,500 and 1,501, fluorescein-labelled at Cys 1501 (UniProt P25054)
[7] = target: pAPCabc with the polyproline linker (PP) inserted between residues 1,500 and 1,501, fluorescein-labelled at Cys 1501 (UniProt P25054)
[8] = target: pAPCabc with the rigid linker (RL) inserted between residues 1,500 and 1,501, fluorescein-labelled at Cys 1501 (UniProt P25054)
[9] = target: pAPCc, phospho domain c of APC R3 in the phosphomimetic form, fluorescein-labelled at Cys 1501 (UniProt P25054)
[10] = target: pAPCabc D1486S, fluorescein-labelled at Cys 1501 (UniProt P25054)

Sequence of armadillo (ARM) repeat domain of human β-catenin (residues 134–671) (P35222 other isoform, or with tags, fused parts or gaps): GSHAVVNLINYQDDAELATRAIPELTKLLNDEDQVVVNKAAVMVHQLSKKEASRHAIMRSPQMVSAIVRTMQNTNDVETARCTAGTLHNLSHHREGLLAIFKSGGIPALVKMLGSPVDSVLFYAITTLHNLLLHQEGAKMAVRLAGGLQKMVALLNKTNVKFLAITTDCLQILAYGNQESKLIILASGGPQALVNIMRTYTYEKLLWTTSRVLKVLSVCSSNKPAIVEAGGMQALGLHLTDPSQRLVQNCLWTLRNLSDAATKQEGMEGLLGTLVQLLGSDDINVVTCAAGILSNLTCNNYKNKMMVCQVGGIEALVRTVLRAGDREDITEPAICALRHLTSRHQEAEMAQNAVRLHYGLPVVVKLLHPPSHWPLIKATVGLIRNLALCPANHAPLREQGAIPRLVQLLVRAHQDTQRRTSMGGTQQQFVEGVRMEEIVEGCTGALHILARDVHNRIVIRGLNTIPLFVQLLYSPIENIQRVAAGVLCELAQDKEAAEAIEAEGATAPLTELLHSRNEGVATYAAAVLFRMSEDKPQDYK

For “armadillo (ARM) repeat domain of human β-catenin (residues 134–671) (from UniProt P35222 134-671) (domain or fragment)”, the Kd [1] was 21.5 nM, the Kd [2] was 28.3 nM and the Kd [3] was 31.2 nM. It also gave a Kd [4] of 196 nM, a Kd [5] of 18.7 nM and a Kd [6] of 10.9 nM. For the same substance, the Kd [7] was 16.4 nM, the Kd [8] was 10.8 nM and the Kd [9] was 160 nM. For the same substance, the Kd [10] was 30 nM.
